From a protein production outcome set (Wang et al. 2014)

Experiment: label from the status in PepcDB records
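Also: failed if final PepcDB status was selected cloned or expressed and not failed if soluble or beyond.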

Sequence | protein production
MGDFDPNKPVVISEFSPKEGGLGTRMLLYGENFGSDISKIKVTIGGQDSKVVGAKGKSLYCVVPAKAYDGDIKLSILNDEGEEIANTEANEKFVYQKKMLVTTFLGTMYDGNTKYDLKDGPFDDCGGFGGAVWLSFDPKNHNHLYLVGEQHPTRLIDFEKEYVSTVYSGLSKVRTICWTHEADSMIITNDQNNNDRPNNYILTRESGFKVITELTKGQNCNGAETHPINGELYFNSWNAGQVFRYDFTTQETTPLFTIQDSGWEFHIQFHPSGNYAYIVVVNQHYILRSDYDWKTKRLTTPYIVCGQQGAKDWVDGVGKKARMHAPRQGTFVKNPAYKGSSDEYDFYFCDRENHCIRILTPQGRVTTFAGRGSNGTSGYNDGDLRQEARFNHPEGIVYDEERECFFIGDRENRRIRKIGLEHHHHHH | failed
MALKPTIYKFRIALSDMNNDYYDSKNLTIALHPSEKPQRMLARILAFCLNAQKDLEFTKGLSTTEEPDLWHVADDQSITHWIEIGEPEPDRIKKASRLAKQVKVYTYNTKAPVWWEKMSGKFSMLPVSVESFDYDAIDMICQHLDRGTNLSVMITGTSIFVDVNDQHVEVTVKELQSHDAP | not failed
MRKFTILLLLLWLPSFVSSLTEFDSVMDLRKQLIVLTGWLGFAYMGAAIVLSARFKWTERLVKGLDKAYGLHKKLGISAFIALLLHWLVIKAAHWAVQLGWLVRPTHAGKERVITGVDWISLAEKVGDISFKVFILFTIISLVERISYKKFKGIHKIGGALMLAGVFHTLFLIKWDLSLIPMNIAIILISAISVWCAILSLTGSIGKKNKIGGQVVLVDKFKDDSEFTVVARLQIKLESKLRYKEGQFAYINFHDGEAPHPFSILNYNEKTRLVEFGIKDLGDYTHQLVNQIAVGKKATVEGGYGYFQVPSDMNQVWVGAGIGIVPLLSRLYWLQKSTDKTTKRIEKIHLFYCVNNEKEAFFSTEIKAILRKMDFIELHLIESDKGYRLTSEYILNKIDNESFSVSFCGPEGFGMSLKQGLMANGLPEASFHKEIFKMR | failed
EGWMDEPDWRRFITAYHQEHAGITEQLFSLADTSPYAWLAEPLRAVEGTVLDLACGSAPTRQELPDADWVGVDLSAAELAEAARQGRGPLLRAAADALPAASASVGAVCAAMCLPVVTPLPQTLGEIRRVLRPGGVLAALVPSQSGLSPSGMLGWVRVMAALRAVRQPWPNPQARDGLPALLRTAGFRVRRDERHVFTLAIDSAGAAALLADALYLPGLTTHRAQAAKR | failed
MGTPNDQAVLQAIFNPDTPFGDIVGLDLGEEAEKEEREEDEVFPQAQLEQSKALELQGVMAAEAGDLSTALERFGQAICLLPERASAYNNRAQARRLQGDVAGALEDLERAVELSGGRGRAARQSFVQRGLLARLQGRDDDARRDFERAARLGSPFARRQLVLLNPYAALCNRMLADMMGQLRRPRDSR | failed
MLNTLIVGASGYAGAELVSYVNRHPHMTITALTVSAQSNDAGKLISDLHPQLKGIVDLPLQPMSDVRDFSADVDVVFLATAHEVSHDLAPQFLQAGCVVFDLSGAFRVNDRAFYEKYYGFTHQYPELLEQAVYGLAEWNVDKLNTANLIAVPGCYPTAAQLSLKPLIDGGLLDLTQWPVINATSGVSGAGRKAAISNSFCEVSLQPYGVFTHRHQPEIAVHLGAEVIFTPHLGNFPRGILETITCRLKAGVTHAQVADVLQKAYGDKPLVRLYDKGVPALKNVVGLPFCDIGFAVQGEHLIVVATEDNLLKGAAAQAVQCANIRFGFAETQSLI | not failed
MTAEQLIEKYKNPAIIGLGVIVALIAAFVFYKYNQSENNTVAQEEMYKAVFYFEQDSLELALKGDEAKGIRGLQEVADEYSGTKAGKLAAFYTGIIYLKQAKFQESIDYLEKFSSNEGILQARSWAAMGDAYSELNDLENAIKYYKKAADHKGNEQITPTYLMKLGLAYELNNNWKDASDAYDKIITDYPKSQDVADAKKYKAKAQAALSASE | failed
MKIVVNNQSTLAAELMIVAQENLQKLVEQTKCPNSKALLDRRIFKAKSGEVLPLLHGDKIVILLGLGLRQDFIASEYDKIIAKAAEQLKKLAIKEISVDIDYAFENDNVKQFTLDTVRALISETYVFDQLKTEKENYSLEQIELVYSGDQDIEDSAKIGSAIACGQNYAKDLQNLPANICTTDYMLNEARELTSKYATFSLDYLDQDAMAELGMGCALAVGRGSYMSNYTVCMEYKGGNEGDAPIVLVGKGLVFDNGGICIKQAAGMDSMKMDMGGVAAVMGTMKAIAMLNLPVNVVGVMGLAENAVDARSYRPGDVLKSMKGITVEVSNTDAEGRLVLCDTLTYIGKYKPKAVIDLATLTGAMIISLGDAYSGMFANSDKLANSLEQAANASNDLIWRLPLHKPYLKKIESKVADMDNCGRDRSAGSIVAALFLSKFTEDYEWAHLDIAGSAMGDFASCKASGRPVPLLVHYLISQAK | not failed
MTGRVCVLVMDSFGIGASLDAARYGDAGANTLVHIYEACKRGECDIEGVRKGPLMLPNLAGKGLYHAAMASSGLSFIDLATLAIPSGYYGYAVEQSLGKDTPSGHWEMAGVPVTFEWGYFPDKPYCFPEELISEFIKQCNLPGVLGEKHASGTIIIDELGEKHIRTGKPIVYTSADSVFQIAAHEEAFGLQRLYDICKIARNLVDKYQIGRVIARPFTGKPGSFKRTGNRKDYATPPPEKTLLDFLKEDGREVIAIGKIADIYAHQGVTQEIKADGNMALFDATLSAMKTAPQGSLVFTNFVDFDSSYGHRRDIAGYAHALEQFDARLPELDALLQPDDMVFIAADHGCDPTFPGSDHTREHIPVLVFGPQVNSKFIGRRDCFADIGQSIAEHLQLSSPLAHGVSFL | failed
MTLHNEIKQLIIDCLDLEDVSIDDIETDAPLFGDGLGLDSIDALELGLAIKKKFDVKIEANSDSTKAHFYSVASLAKFIESQRP | failed
MSAYIAPSQIAQRQLEYFNGKHVLVAGEVEDMFPLELTAHCESVEVFTSNYSYFRQIRHSDKIKSHFGSEFDVETQADMLLLYWPKAKAEAEYLLAMLMAKLGVNTEIVVVGENRSGVKSIEKMFKEYGPVNKYDSARRCSFYWGNCLNEPKPFNQEEWFKSYTVTLGEQSLTVKSLPGVFSHGEFDLGSRLLLETLPNLSGKVLDFGCGAGVLGAFMAKANPEIAIEMCDINAYAITSSQATLEANGLSGRVFASDIYSDTANDYRFIISNPPFHSGLDTNYNAAETLLGHAPQHLSNHGEMIIVANSFLKYPPIIENAFNNCETLNKTNKFSIYYAKKS | failed
MQVQVSGKHVDVGEALRARVSDEIALSIGKYFDRGGAAEVVVSKEGYAFRVDCSVKLASGQQLISHGSGGDAHAAFDAALAKIDTRIRRYKRRLKSHSAAATAKQVENAAMFVLRAPESDDVDEDWDIEDDHPTGAPAAMVIAETQAAMKTMTVSMAVMELDLTAYPAIVFRNAAHGGISVVYRRPDGNIGWIDPERTKSNGHGSTAS | failed
MNLKQIAKDTAKTLQSYLTYQALMTVLAQLGETNPPLALWLHTFSVGKVQDGEAYVKELFREQPDLALRIMTVREHIAEEVAEFLPEMVRSGIQQANMEQRRQHLERMTHLSLSNPSPESEQQTISDTDWDH | failed
MNLKTLKIFIEGYGCTLNTADTNIINNSIKKFKNFIIVNNLDDADIVVINTCVVRLETEHKMISRINYIKSLNKYIVIAGCMPKALKKKAEKINPDILIMPKEAHLIGDIIYNYFKNNIGNENNADNKIEDSMKCGELPHNQASSSGNYNDIDNKLTQLKPNNLIMPLPISEGCTGKCTYCIVKIARGRLASYNPDKIINKAKEFVDNGVKQMLITSQDTACYGFDKNTTLPTLLNEICQIKGDFNIRIGMMHAKNVPMIIDELIDRYKDDKITKFFHLPIQSGDDDVLRAMKREYTVDEYMDIAMEFKRKIKDLNFNTDVIVGFPTETEDNFNNTIELLKKLKPDAIHGAKYTQRKGTEADRLKQVDTKIRKERMKILDKLRKEFSLENHEKYVGKIMPCLIVGKNEGITHNCKTVKFENCEDVKIGEFRKIKIKEALTFGLYGEIIN | failed
MSHIQRETSCSRPRLNSNLDADLYGYRWARDNVGQSGATIYRLYGKPNAPELFLKHGKGSVANDVTDEMVRLNWLTAFMPLPTIKHFIRTPDDAWLLTTAIPGKTAFQVLEEYPDSGENIVDALAVFLRRLHSIPVCNCPFNSDRVFRLAQAQSRMNNGLVDASDFDDERNGWPVEQVWKEMHKLLPFSPDSVVTHGDFSLDNLIFDEGKLIGCIDVGRVGIADRYQDLAILWNCLGEFSPSLQKRLFQKYGIDNPDMNKLQFHLMLDEFF | not failed
MTQRRATRRRFLMGCSAIASVGLAGCTGGDESTATDSTPSPTDDGDAEPTTTTDEPPATDTATATPDQEAVETLVSVGGDRVPENMALGPDGGLYFGITAGEVRRVPAAETGATGLSLEDTEQIATLPGAIGVEAAPDGTVYVAVATQDDQAGVWEIPLDGDAAQLVEMGGFPNDIHYDADQERLLVTESQNGVVYAVTTDGERSTWLDDDRLETESFGANGITRDADGDIFVAVTRAPEETGRLLRVPVESDGAAGEPSMFFEGGAIFGADGITSRDGDIYVAANSQNRVVRVTADGTTDVVATADNGLVFPSDVLFRTGDQQESLFICNFANQSPEDGAILRTSVPR | failed
MDMGNQHPSISRLQEIQREVKAIEPQVVGFSGLSDDKNYKRLERILTKQLFEIDSVDTEGKGDIQQARKRAAQETERLLKELEQNA | not failed
MEQLAKLSMTDRLTGLLNRGTWENLVDAEYERFRRYGQATSLVMFDIDHFKPVNDTYGHLAGDEVIRHTADVTRNNIRQSDSAGRYGGEEFGIILPETDAESARVICERIREAIEKSTVSTSAGDIQYTVSMGIAQLTETPENYMQWMQKADEALYKAKESGRNKVVVSLEHHHHHH | not failed
MKRKMENMKYTMSYIAKNFRVALMLSLMMLLCSCSSEDKLELHKGATLPIMQGIADNVPYIQSVEKELTYDLYDGVRITDVIFTYCAKPTRMIIAEVDLNKNVTIVTSTPDNKPEVGKILQQVTVQAEKAEAAGRKVILGTNGDFYSKKNDLWIPGGLFYKDGVAIKTEIGWEADHVFYMLKDGTAHITSVPEFKLVEREVVHAIGGWQRMVQDGEVVKNFTVNDNAMQFHPRTFVGVSADNRKVYLFVVDGRQPEYSNGMRLEDMMLLCQGAGCYQAFNMDGGGSTTMVRRVEKGSSVSFEVMNQPSDNPARSVINGLQVIEKTN | failed
MYTKGSVSTRIAKYLFIILIVAGVISSLSLAIMSSNKYDAEAINISGSLRMQSYRLLYEMQEQPESVETNLRRYHISLHSSALLEVQNQFFTPNVLKHSYQNILQRWTNMEKYARQQDVKNYSKQLTDYVADVDYFVFELQRFSEQKWILGVSVLGFAMLLILLMVSYVIWYTNREVVKPLHLMTKASMQVQMRQFNHIPLDTRKQNELGTLARVFTQMSTELGQLYSRLEEAVNEKTQKLRQTNRTLSTLYQSAQLLNTNTINDKILNQVLNYIFISDHLNFVKVEVMGAEHWDITLGKQDANNELQIETLSVDNEELGVLSWQAGLPCPDPRIMQNLAQMLARALYFHKNLRQKEQLLLMEERSIIARELHDSLAQVLSFLQIQLTLLKHNLKKEDEQSKEKSLAIIANFEQALSGGYAQLRELLATFRLTIQEANLQLALKQVIDSLRSQTTMQMNVNCQLPSQSLNPQQLVHVLQIVREATTNAIKHSQGTVIEISARINAEGEYEILVEDDGVGIPNLEEPEGHYGLNIMAERCRQLNAQLHIHRREQGGTQVKITLPHTLY | failed
MSAEAADREAVSGSRPCTPPQTSWFEFLLNPSLLEQHLHSPHPDPSPVQLIFQFLEQASKPSVNEQNQVQPPVDNRRNRTLKLMALKVAAHLRWDLNMLEKGLTIPVLNMLLNELLCVSHVPPGVKHVDLDLSSLPPTTAMAVVFYNRWAIRTIVLSSFPEKQTKPGPHQLNMMNMLQQEKEHTENILSVLREQATDSIMVLEGALSIKKDFYIHL | not failed
MTKYKVALFDLDNTLLKTEDASVAALTYALNQDGVEVTPQAIVELMGLPGIDMARELGSSNPAKTIDIFNERINQEVDLIKEYDGIDEMFAGLRELGIEYGIVTSKLRRVFDDEMRSFPKIRAIEKVVLSDDTKKHKPHADPIEFGMQKYFPKLNRADVIYVGDSLFDMQSAHAAGVDFANAGWGAIPANDFSEAEYILKTPTDLLEIV | failed
